Data on two proteins can be found in US5910570A, “Cloned DNA encoding a UDP-GalNAc: polypeptide N-acetylgalactosaminy-ltransferase” (Pharmacia & Upjohn Company, priority 1997, dated 1999).

Holding throughout (format): biochemical, bovine
Substrate in data set [1]: CC(C)C[C@H](NC(=O)[C@@H]1CCCN1C(=O)[C@H](C)NC(=O)[C@H](C)NC(=O)[C@H](CO)NC(=O)[C@H](C)NC(=O)[C@H](C)NC(=O)[C@H](CC(=O)O)NC(=O)[C@@H]1CCCN1C(=O)[C@@H]1CCCN1)C(=O)N[C@@H](CCCNC(=N)N)C(=O)O
Kind of data set: Kinetic parameters with the cloned soluble GalNAc-transferase (Bond Elut assay). Particulars: other: GalNAcTs; double reciprocal plots.

Substrate in data set [2]: C[C@H](NC(=O)[C@@H]1CCCN1C(=O)[C@@H]1CCCN1)C(=O)N[C@@H](CO)C(=O)N[C@H](C(=O)N[C@@H](CO)C(=O)N[C@@H](C)C(=O)N1CCC[C@H]1C(=O)NCC(=O)O)[C@@H](C)O
Described as above. Particulars: other: GalNAcTs; double reciprocal plots.

Substrate in data set [3]: C[C@H](NC(=O)[C@@H]1CCCN1C(=O)[C@@H]1CCCN1)C(=O)N[C@@H](CO)C(=O)N[C@H](C(=O)N[C@@H](CO)C(=O)N[C@@H](C)C(=O)N1CCC[C@H]1C(=O)NCC(=O)O)[C@@H](C)O
Kind of data set: Determination of kinetic parameters for acceptor peptides (Dowex-2 assay). Particulars: other: acceptor peptide; 150 μM UDP-GalNAc, 20 minutes; means ± S.E. (n = 3); pH 7.2. The procedure: (§1) The transfer of N-acetylgalactosamine to peptide acceptors is assayed by two different assays. The concentration of UDP-GalNAc is saturating in all assays; a Km of 8 μM is reported for bovine colostrum GalNAc-transferase (Elhammer and Kornfeld, 1986). For the determination of kinetic parameters the reaction mixture contains 50 mM Imidazole, pH 7.2, 10 mM MnCl2, 0.5% Triton X-100, 150 μM UDP-GalNAc, approximately 120,000 cpm of UDP-[1-^3 H]-GalNAc, varying concentrations of acceptor (see individual experiments) and approximately 5 mU of enzyme in a final volume of 40 μl; standard incubation time is 20 minutes. The reaction is terminated by placing the samples in a boiling water bath for 1.5 minutes. The reaction product (glycosylated peptide) is separated from unreacted UDP-GalNAc by chromatography on Dowex-2 columns (0.5 ml bed volume) equilibrated in water; the run-through fraction (2.5 ml) containing the glycosylated peptide is collected, supplemented with scintillation fluid and counted for radioactivity. For the determination of the low levels of transfer to serine, the assay conditions are as follows: 50 mM Imidazole, pH 7.2, 10 mM MnCl2, 0.5% Triton X-100, 150 μM UDP-GalNAc, approximately 260,000 cpm UDP-[^3 H]-GalNAc and 3.2 mM acceptor peptide (the concentration of RSPPP is 3.7 mM). The assays are incubated for 20 minutes ([…]) [SEQ ID NO:14] or 8 hours ([…] [SEQ ID NO:15], PPAdSSdSAPG and RSPPP [SEQ ID NO:13]). Following incubation, the enzyme is inactivated by placing the samples on a boiling water bath for 1.5 minutes. The samples are then allowed to cool and the reaction products are separated from unreacted UDP-GalNAc and free GalNAc by chromatography on a Biogel P-2 column (1×50 cm) equilibrated in 7% isopropanol; thirty 1.3 ml fractions are collected.
(§2) Assays were carried out as described in Materials and Methods.
(§3) Assay time was 20 minutes.
(§4) The values are given as means ± S.E. (n = 3)

Substrate in data set [4]: C[C@H](NC(=O)[C@@H]1CCCN1C(=O)[C@@H]1CCCN1)C(=O)N[C@@H](CO)C(=O)N[C@@H](CO)C(=O)N[C@@H](CO)C(=O)N[C@@H](C)C(=O)N1CCC[C@H]1C(=O)NCC(=O)O
The data set is described as above. Particulars: other: calculated assuming that S0 << Km; pH 7.2. As for the experimental part:
as §1, §2, §3, §4

Substrate in data set [5]: C[C@@H](O)[C@H](NC(=O)[C@@H](N)CCCNC(=N)N)C(=O)N1CCC[C@H]1C(=O)N1CCC[C@H]1C(=O)N1CCC[C@H]1C(=O)O
Described as above. The settings on record: other: acceptor peptide; 150 μM UDP-GalNAc, 20 minutes; means ± S.E. (n = 3); pH 7.2. As for the experimental part: as §1, §2, §3, §4

Substrate in data set [6]: C[C@H](NC(=O)[C@@H]1CCCN1C(=O)[C@@H]1CCCN1)C(=O)N[C@H](CO)C(=O)N[C@H](C(=O)N[C@H](CO)C(=O)N[C@@H](C)C(=O)N1CCC[C@H]1C(=O)NCC(=O)O)[C@@H](C)O
Described as above. The settings on record: other: calculated assuming that S0 << Km; pH 7.2. The procedure:
as §1, §2, §3, §4

Substrate in data set [7]: N=C(N)NCCC[C@H](N)C(=O)N[C@@H](CO)C(=O)N1CCC[C@H]1C(=O)N1CCC[C@H]1C(=O)N1CCC[C@H]1C(=O)O
The description is as above. The settings on record: other: calculated assuming that S0 << Km; pH 7.2. The procedure:
as §1, §2, §3, §4

Where “and” joins values, the source holds several entries; their conditions need not be identical. Equal entries are not always repeated.

By Km is commonly meant the concentration of substrate that gives half-maximal velocity. The term kcat denotes the maximal rate divided by the concentration of active sites. Usually kcat/Km stands for the turnover number divided by the Michaelis constant.

B1: cloned soluble GalNAc-transferase (GalNAcTs) (Bos taurus) (protein)
chain: LEPVQKPHEGPGEMGKPVVIPKEDQEKMKEMFKINQFNLMASEMIALNRSLPDVRLEGCKTKVYPDNLPTTSVVIVFHNEAWSTLLRTVHSVINRSPRHMLEEIVLVDDASERDFLKRPLESYVKKLKVPVHVIRMEQRSGLIRARLKGAAVSKGQVITFLDAHCECTVGWLEPLLARIKHDRKTVVCPIIDVISDDTFEYMAGSDMTYGGFNWKLNFRWYPVPQREMDRRKGDRTLPVRTPTMAGGLFSIDRDYFQEIGTYDAGMDIWGGENLEISFRIWQCGGTLEIVTCSHVGHVFRKATPYTFPGGTGQIINKNNRRLAEVWMDEFKNFFYIISPGVTKVDYGDISSRLGLRHKLQCRPFSWYLENIYPDSQIPRHYFSLGEIRNVETNQCLDNMARKENEKVGIFNCHGMGGNQVFSYTANKEIRTDDLCLDVSKLNGPVTMLKCHHLKGNQLWEYDPVKLTLQHVNSNQCLDKATDEDSQVPSIRDCSGSRSQQWLLRNVTLPEIF
notes: The plasmid pAC373-GalNAcT (Homa et al., 1993) which contains the full length GalNAc-transferase gene; honeybee melittin signal peptide (21 aa) (N, cleaved yes); made in house; host or cells: Sf9 cells / baculovirus, purified from serum-free culture medium on apomucin-Sepharose
On to B1, for which the Km in data set [1] is 3.6 mM and 3.5 mM; in data set [2] it was 6.5 mM.

B2: bovine colostrum GalNAc-transferase (Bos taurus) (protein)
chain: GLPAGDVLEPVQKPHEGPGEMGKPVVIPKEDQEKMKEMFKINQFNLMASEMIALNRSLPDVRLEGCKTKVYPDNLPTTSVVIVFHNEAWSTLLRTVHSVINRSPRHMLEEIVLVDDASERDFLKRPLESYVKKLKVPVHVIRMEQRSGLIRARLKGAAVSKGQVITFLDAHCECTVGWLEPLLARIKHDRKTVVCPIIDVISDDTFEYMAGSDMTYGGFNWKLNFRWYPVPQREMDRRKGDRTLPVRTPTMAGGLFSIDRDYFQEIGTYDAGMDIWGGENLEISFRIWQCGGTLEIVTCSHVGHVFRKATPYTFPGGTGQIINKNNRRLAEVWMDEFKNFFYIISPGVTKVDYGDISSRLGLRHKLQCRPFSWYLENIYPDSQIPRHYFSLGEIRNVETNQCLDNMARKENEKVGIFNCHGMGGNQVFSYTANKEIRTDDLCLDVSKLNGPVTMLKCHHLKGNQLWEYDPVKLTLQHVNSNQCLDKATDEDSQVPSIRDCSGSRSQQWLLRNVTLPEIF
notes: from tissue; host or cells: bovine colostrum
Regarding B2, the Km in data set [3] was found to be 6 mM; in data set [5], 3.3 mM. Besides, the kcat turned out to be 1.81 ± 0.357 s⁻¹ in data set [3] and 0.604 ± 0.083 s⁻¹ in data set [5]. For the same protein, the catalytic efficiency (kcat/Km) in data set [3] was 301 M⁻¹ s⁻¹; in data set [4] it was 8.5 M⁻¹ s⁻¹; in data set [5] it was 183 M⁻¹ s⁻¹; in data set [6] it was 1.2 M⁻¹ s⁻¹; in data set [7], 0.4 M⁻¹ s⁻¹.
